Paper PMC10761123 (RNA Biology, 2023)

Molecular target: the molecule itself
Assay: crystal structure

B1: Arabidopsis thaliana PUMY K185A mutant, C-terminal His-tagged, as crystallized (enzyme, UniProt Q84K35 21-330, looked up)
chain: EANNKLRSLVKISPQVSEALSNGRAVVALESTIISHGMPYPQNLQTAKEVESIVRENGAIPATIAILNGVPCIGLSEEELERLASLGKSVQKTAGRDIANVVATRGNGATTVSATLFFASMVGIQVFVTGGIGGVHRHANHSMDISSDLTALGRTPIAVISAGVASILDIPKTLEYLETQEVYVAAYKSDEFPAFFTEKSGCKAPSRVNSPEDCARVIDANMKLNRQAGILFAIPIPKHHSAAGNLIESATQRALTEAREQNVTGNAETPFLLARVNELTGGTSLAANIALVKNNALIGSQIAVALSQLM
- stoichiometry N: 3
